The target of the test is T1, human TLR5 expressed from p3xFlag-hTLR5 in HEK293T cells (human, UniProt O60602 21-858).
T1 construct: whole, on cells; In the reporter assays the receptor stood on transfected HEK293T cells; In the Co-IP it stood in the RIPA lysate of such cells and was pulled down with an anti-Flag antibody; also called Toll-like receptor 5; not shown: 3xFlag tag of plasmid p3xFlag-hTLR5
The test is described as follows: Co-IP: 3xFlag-hTLR5 HEK293T lysate, anti-Flag pull-down, western blot with anti-Myc-HRP. In general terms: Immunoblotting shows a protein as a band on a membrane.

This note sets out measurements from patent US20260132173A1 (JOON HAENG, published 2026).

T1 sequence (O60602 21-858): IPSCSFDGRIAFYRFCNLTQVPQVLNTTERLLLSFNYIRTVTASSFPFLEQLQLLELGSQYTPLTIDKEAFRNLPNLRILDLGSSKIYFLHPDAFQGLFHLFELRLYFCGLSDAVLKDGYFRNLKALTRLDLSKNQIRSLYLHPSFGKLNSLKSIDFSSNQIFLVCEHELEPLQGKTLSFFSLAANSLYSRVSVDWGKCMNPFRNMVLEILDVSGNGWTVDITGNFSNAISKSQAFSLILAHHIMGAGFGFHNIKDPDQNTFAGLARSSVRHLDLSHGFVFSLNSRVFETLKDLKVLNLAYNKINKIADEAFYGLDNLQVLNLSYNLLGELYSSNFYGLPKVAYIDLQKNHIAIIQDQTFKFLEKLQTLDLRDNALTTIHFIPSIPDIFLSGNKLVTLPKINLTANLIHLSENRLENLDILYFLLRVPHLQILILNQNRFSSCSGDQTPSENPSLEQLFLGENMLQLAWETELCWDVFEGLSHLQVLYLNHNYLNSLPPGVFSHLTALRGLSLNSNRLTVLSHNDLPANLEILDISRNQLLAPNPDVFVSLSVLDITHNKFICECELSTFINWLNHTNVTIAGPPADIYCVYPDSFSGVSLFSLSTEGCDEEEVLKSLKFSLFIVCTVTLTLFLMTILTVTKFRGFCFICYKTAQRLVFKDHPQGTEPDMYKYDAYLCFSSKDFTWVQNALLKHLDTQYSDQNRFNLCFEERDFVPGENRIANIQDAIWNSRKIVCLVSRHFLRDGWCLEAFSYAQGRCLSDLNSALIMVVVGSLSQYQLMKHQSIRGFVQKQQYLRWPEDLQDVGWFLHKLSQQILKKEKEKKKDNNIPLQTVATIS

B1: wild-type flagellin (eukFlaB) expressed in Expi293 cells (ligand)
chain: AVNVNTNVAAMTAQRYLNNANSAQQTSMERLSSGFKINSAKDDAAGLQISNRLNVQSRGLDVAVRNANDGISIAQTAEGAMNETTNILQRMRDLSLQSANGSNSKSERVAIQEEVTALNDELNRIAETTSFGGNKLLNGTYGTKAMQIGADNGEAVMLSLKDMRSDNVMMGGVSYQAEEGKDKNWNVAAGDNDLTIALTDSFGNEQEIEINAKAGDDIEELATYINGQTDLVKASVGEGGKLQIFAGNNKVQGEIAFSGSLAGELGLGEGKNVTVDTIDVTTVQGAQESVAIVDAALKYVDSHRAELGAFQNRFNHAISNLDNINENVNASKSRIKDTDFAKETTQLTKTQILSQASSSILAQAKQAPNSALSLLG
modifications: N-glycosylated by expression in Expi293 cells; five putative sites predicted at N83, N101, N139, N273, N330
notes: Secreted through the IgK leader of pSectag2B; also called glycosylated-eFlaB; eukaryotic-expressed wild-type flagellin; not shown: C-terminal Myc tag (and His tag implied by Ni-NTA purification) from vector pSectag2B
Take B1: the binding result is “no binding”.
